Experimental data: US20230000974A1

System: T1, fluorogenic substrate (R&D systems, cat no. ES007), peptide YVADAPK between Mca and Dnp groups
T1 sequence: YVADAPK

With “commercial ACE-2 from Sino Biological (cat no 10108H08H20)” the “enzymatic activity assay using a fluorogenic substrate (fluorescence, excitation 320 nm, emission 405 nm)” value was “All four samples appeared to have similar levels of activity”.
